From patent US12258584B2, “Methods and systems for converting precursor cells into intestinal tissues through directed differentiation” (Children's Hospital Medical Center, priority 2010, dated 2025)

B1: ActivinA: nodal-related TGFβ molecule (R&D systems) used to differentiate PSCs into definitive endoderm (protein, UniProt P08476 311-426, looked up)
Inhibin beta A chain: GLECDGKVNICCKKQFFVSFKDIGWNDWIIAPSGYHANYCEGECPSHIAGTSGSSLSFHSTVINHYRMRGHSPFANLKSCCVPTKLRPMSMLYYDDGQNIIKKDIQNMIVEECGCS
B2: Noggin: the BMP antagonist Noggin (R&D Systems) (protein, UniProt Q13253 28-232, looked up)
Noggin: QHYLHIRPAPSDNLPLVDLIEHPDPIFDPKEKDLNETLLRSLLGGHYDPGFMATSPPEDRPGGGGGAAGGAEDLAELDQLLRQRPSGAMPSEIKGLEFSEGLAQGKKQRLSKKLRRKLQMWLWSQTFCPVLYAWNDLGSRFWPRYVKVGSCFSKRSCSVPEGMVCKPSKSVHLTVLRWRCQRRGGQRCGWIPIQYPIISECKCSC

Assays:
hESCs and iPSCs = test: Definitive endoderm induction, SOX17/FOXA2 immunofluorescence; assay type: cell-based, human; conditions: ActivinA 100 ng/ml for 3 days
Method: Differentiation of PSCs into Definitive Endoderm (DE). Differentiation into Definitive Endoderm was carried out as previously described. Briefly, a 3 day ActivinA (R&D systems) differentiation protocol was used. Cells were treated with ActivinA (100 ng/ml) for three consecutive days in RPMI 1640 media (Invitrogen) with increasing concentrations of 0%, 0.2%, 2% HyClone defined FBS (dFBS) (Thermo Scientific).
Directing Hindgut Development of PSCs. As a first step to generating intestinal tissue, nodal-related TGFβ molecule activinA was used to promote differentiation of PSCs into DE as previously published. […]
FIGS. 6a and 6b illustrate exemplary embodiments in accordance with the present invention, depicting characterization of DE formation from hESC and iPSC lines by immuno-fluorescence (IF) and Microarray analysis. […] (b) Transcriptional profile of DE induction. hESC-H9 and iPSC lines 3.5, 3.6 and 3.12 were analyzed before and after DE formation (activin differentiation) by Affymetrix DNA microarray analysis.
Tissues were fixed for 1 hour to overnight in 4% paraformaldehyde or 3% glutaraldehyde for transmission electron microscopy (TEM). […] Slides were washed and mounted using Fluormount-G. Confocal images were captured on a Zeiss LSM510 and Z-stacks were analyzed and assembled using AxioVision software. […]

[1] = test system: H9-HES cells differentiated into definitive endoderm; test: Posteriorization of definitive endoderm: foregut (ALB, PDX1) and hindgut (CDX2) marker expression by RT-qPCR and immunofluorescence; assay type: cell-based, human
Method: Differentiation of DE in Permissive Media (Differentiation Protocol for FIG. 1). After differentiation into definitive endoderm, cells were incubated in DMEM/F12 plus 2% defined fetal bovine serum (dFBS) with either 0, 50, or 500 ng/ml of FGF4 and/or 0, 50, or 500 ng/ml of Wnt3a (R&D Systems) for 6, 48, or 96 hours. Cultures were then grown in permissive media consisting of DMEM plus 10% fetal bovine serum (FBS) for an additional 7 days.
FIGS. 1a through 1d illustrate exemplary embodiments of the present invention. FGF4 and Wnt3a act synergistically in a temporal and dose-dependent manner to specify stable posterior endoderm fate. ActivinA (100 ng/ml) was used to differentiate H9-HES cells into definitive endoderm (DE). DE was treated with the posteriorizing factors FGF4 (50, 500 ng), Wnt3a (50, 500 ng) or both for 6, 48 or 96 hours. Cells were then cultured in a permissive medium without growth factors for an additional seven days and analyzed for expression of foregut markers (ALB, PDX1) and the hindgut marker (CDX2) by RT-qPCR (a) and immunofluorescence (b-d). FGF4/Wnt-mediated changes in marker expression in (a) is relative to 3-day activin treated DE cultures that were grown for identical lengths of time in the absence of FGF4 or Wnt3a (control). […] Error bars denote standard deviation of triplicates. Significance is shown by; * (p<0.05), ^ (p<0.001), # (p<0.0001).
FIGS. 7a and 7b illustrate exemplary embodiments in accordance with the present invention, depicting time and concentration dependent induction of CDX2 by FGF4 and Wnt3a. (a) FGF4 and Wnt3a up-regulate CDX2 in a concentration dependant manner. 3-day ActivinA treated hESCs were treated for 48 hours with Wnt3a at 50 ng/ml or 500 ng/ml or FGF4 at 50 ng/ml or 500 ng/ml, or increasing concentrations of FGF4+Wnt3a. Cells were analyzed after 48 hours of treatment. […] CDX2 expression was normalized to the internal control beta-tubulin, and is shown relative to a 48 hour control cultured in the absence of growth factors. (b) FGF4 and Wnt3a up-regulate CDX2 in a time dependant manner. 48 hours of exposure to FGF4+Wnt3a was required for the most robust induction of CDX2. All time points shown are set relative to a 0 hour no growth factor control. 500 ng/ml of FGF4, Wnt3a or FGF4+Wnt3a was used for all time points. Note that 24 hour and 48 controls, in the absence of growth factors, show a significant and spontaneous up-regulation of CDX2. Error bars denote standard deviation of triplicates. Significance is shown by; * (p<0.05)
RNA was isolated using the Nucleospin II RNA isolation kit (Clonetech). […] Finally, qPCR was carried out using Quantitect SybrGreen MasterMix (Qiagen) on a Chromo4 Real-Time PCR (BioRad). […]

intestinal organoids = test: Intestinal regionalization of hindgut spheroids in 3D matrigel culture with BMP or noggin; assay type: cell-based, human; conditions: added after the hindgut stage to EGF/Rspondid1 containing media; organoids analyzed after 28 days
Method: For investigating the impact of BMP signaling on intestinal regionalization after hindgut formation, hindgut spheroids were plated in matrigel and BMP or noggin were added to EGF/Rspondid1 containing media. Intestinal organoids were analyzed after 28 days.

[2] = test system: definitive endoderm from human embryonic and induced pluripotent stem cells; test: Foregut/hindgut patterning of definitive endoderm by WNT, FGF, BMP and RA signaling (Cdx2, Sox2, HHex, Cerberus expression); assay type: cell-based
Method: Following definitive endoderm (DE) induction with activin (100 ng/ml) for 3 days, a 2-4 day treatment was performed with the indicated combination of factors: Wnt3a (500 ng/ml) and Fgf4 (500 ng/ml), Retinoic acid (RA) in a range of 0.2-20 μM the BMP antagonist Noggin (50 ng/ml), the WNT antagonist […] (1-500 ng/ml).
In particular, FIGS. 14B and 14D depict the activation of FGF/WNT/BMP signaling promotes posterior/hindgut fate as indicated by expression of Cdx2. […] Activation of FGF/WNT/BMP signaling represses foregut fate as indicated by expression of Sox2 (FIG. 14C).
The effects of Retinoic Acid in promoting hindgut differentiation in a BMP dependent manner (FIGS. 15A-15D). […] Similar comparison was also performed by immunostaining (FIGS. 15C and 15D). Activation of RA signaling promotes posterior/hindgut fate as indicated by expression of Cdx2 and represses foregut fate as indicated by expression of Sox2. Immunostaining in FIG. 15C is quantified in FIG. 15D using an automated cell counting program.

Molecule	cells co-expressing the DE markers SOX17 and FOXA2 (hESCs and iPSCs)	cells co-expressing the DE markers SOX17 and FOXA2 (hESCs and iPSCs; listed as Activin)	competence of DE cultures to form foregut and hindgut lineages ([1]; activinA for only 3-days, then seven days in permissive conditions)	competence of DE cultures to form foregut and hindgut lineages ([1]; prolonged activin treatment for 4-5 days)	regional intestinal fate (intestinal organoids)	Wnt/Fgf-induced Cdx2 expression ([2]; Noggin 50 ng/ml with Wnt3a 500 ng/ml and Fgf4 500 ng/ml, 2-4 day treatment after DE induction)	Retinoic acid (RA)-induced posteriorization, Cdx2 expression ([2]; addition of Noggin to Retinoic acid treatment)	hindgut and foregut fate (Cdx2, Sox2 expression) ([2]; repression of BMP signaling with noggin)
B1	80-90%	up to 90%	competent to develop into both foregut (Albumin+ and Pdx1+) and hindgut (Cdx2) lineages	intrinsically anterior in character and not as competent to form posterior lineages	–	–	–	–
B2	–	–	–	–	promotes a proximal intestinal fate (duodenum/jejunum)	completely abolishes the Wnt/Fgf-induced Cdx2 expression	potently inhibits Cdx2 expression	suppresses hindgut fate and promotes foregut fate
